Where a chain is given by its changes, count along the chain named. Where two headings read alike, the source gives them in different places.
T1: HCoV-OC43-N protein (HCoV-OC43, UniProt P33469 1-448)
T1 construct: also called OC43-CoV N
T1 chain: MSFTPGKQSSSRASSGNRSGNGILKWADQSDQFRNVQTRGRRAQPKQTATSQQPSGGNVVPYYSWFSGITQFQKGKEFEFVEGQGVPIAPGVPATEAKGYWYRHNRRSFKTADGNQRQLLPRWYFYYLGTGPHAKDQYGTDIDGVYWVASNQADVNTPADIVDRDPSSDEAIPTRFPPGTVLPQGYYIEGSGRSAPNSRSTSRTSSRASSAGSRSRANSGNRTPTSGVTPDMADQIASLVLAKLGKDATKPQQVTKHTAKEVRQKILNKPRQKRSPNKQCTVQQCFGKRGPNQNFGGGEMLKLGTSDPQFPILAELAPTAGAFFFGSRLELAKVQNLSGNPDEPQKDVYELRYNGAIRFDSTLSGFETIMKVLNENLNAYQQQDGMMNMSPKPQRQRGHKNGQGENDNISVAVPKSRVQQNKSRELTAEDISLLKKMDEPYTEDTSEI

T2: HCoV-NL63-N protein (HCoV-NL63, UniProt Q6Q1R8 1-377)
T2 construct: also called NL63-CoV N
T2 sequence: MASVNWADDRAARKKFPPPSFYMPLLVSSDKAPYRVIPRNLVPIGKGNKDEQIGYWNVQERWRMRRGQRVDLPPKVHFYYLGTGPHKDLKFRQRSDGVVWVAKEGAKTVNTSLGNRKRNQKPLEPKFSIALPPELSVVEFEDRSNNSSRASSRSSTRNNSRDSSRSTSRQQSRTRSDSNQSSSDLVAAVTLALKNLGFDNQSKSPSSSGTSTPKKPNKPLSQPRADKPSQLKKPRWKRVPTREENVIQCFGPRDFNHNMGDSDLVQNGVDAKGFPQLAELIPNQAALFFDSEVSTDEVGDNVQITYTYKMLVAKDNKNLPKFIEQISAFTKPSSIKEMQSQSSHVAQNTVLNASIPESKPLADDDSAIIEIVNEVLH

T3: HCoV-HKU1-N protein (HCoV-HKU1, UniProt Q5MQC6 1-441)
T3 construct: also called HKU1-CoV N
T3 chain: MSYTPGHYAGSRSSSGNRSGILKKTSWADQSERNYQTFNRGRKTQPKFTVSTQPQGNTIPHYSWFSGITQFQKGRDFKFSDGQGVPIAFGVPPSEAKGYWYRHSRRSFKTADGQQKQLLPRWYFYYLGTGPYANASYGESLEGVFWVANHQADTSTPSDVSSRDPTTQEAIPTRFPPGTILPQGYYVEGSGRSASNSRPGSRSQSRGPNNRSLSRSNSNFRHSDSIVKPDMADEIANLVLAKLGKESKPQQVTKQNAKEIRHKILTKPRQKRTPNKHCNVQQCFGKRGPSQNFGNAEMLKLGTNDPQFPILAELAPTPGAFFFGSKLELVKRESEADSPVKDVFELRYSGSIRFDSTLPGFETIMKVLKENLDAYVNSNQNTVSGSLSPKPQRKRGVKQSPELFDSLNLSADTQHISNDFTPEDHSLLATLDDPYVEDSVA

B1: antibody #11 (antibody, V domains shown)
VH: EVQLVESGGGLVQPGGSLRLSCAASGFTIQDRMIHWVRQAPGKGLEWVASILPFLGATWYADSVKGRFTISADTSKNTAYLQMNSLRAEDTAVYYCARSWFSPFDYWGQGTLVTVSS
VL: DIQMTQSPSSLSASVGDRVTITCRASQDVGGSVAWYQQKPGKAPKLLISFPGGLYSGVPSRFSGSGSGTDFTLTISSLQPEDFATYYCQQYFSWPITFGQGTKVEIKR
notes: also called D11; C11
B2: antibody #7 (antibody, V domains shown)
VH: EVQLVESGGGLVQPGGSLRLSCAASGFTIEDRWIHWVRQAPGKGLEWVASIWPMEGLTRYADSVKGRFTISADTSKNTAYLQMNSLRAEDTAVYYCARGYYGFDYWGQGTLVTVSS
VL: DIQMTQSPSSLSASVGDRVTITCRASQDVEARVAWYQQKPGKAPKLLIFTSTRLYSGVPSRFSGSGSGTDFTLTISSLQPEDFATYYCQQIMPLPTTFGQGTKVEIKR
notes: also called C07
B3: antibody #33 (antibody, V domains shown)
VH: B2 VH with E30N, D31N, R32G, W33G, S50G, M54F, E55W, L57S, R59S, Y100S
VL: B1 VL with G30Y, G31S, S49F, F50G, P51S, G52S, G53F, F92Y, S93D
notes: also called D33; C33
B4: antibody #21 (antibody, V domains shown)
VH: EVQLVESGGGLVQPGGSLRLSCAASGFTINNGSIHWVRQAPGKGLEWVAWIWPFGGYTYYADSVKGRFTISADTSKNTAYLQMNSLRAEDTAVYYCARGSYGYDYWGQGTLVTVSS
VL: DIQMTQSPSSLSASVGDRVTITCRASQDVGSNVAWYQQKPGKAPKLLIFSAPFLYSGVPSRFSGSGSGTDFTLTISSLQPEDFATYYCQQFYDWPLTFGQGTKVEIKR
notes: also called D21
B5: antibody #22 (antibody, V domains shown)
VH: B4 VH with N30S, N31S, W50S, Y59S, Y101F, Y103S
VL: B1 VL with G30D, G31D, S32N, F50S, P51S, G52S, Y91S, F92Y, S93N, W94G
notes: also called D22
B6: antibody #36 (antibody, V domains shown)
VH: B4 VH with N31R, G32Y, W50G, Y57D, Y59T, S100A, Y101T, G102S, Y103H
VL: DIQMTQSPSSLSASVGDRVTITCRASQDVTTTVAWYQQKPGKAPKLLINKGSWLYSGVPSRFSGSGSGTDFTLTISSLQPEDFATYYCQQYNKWPLTFGQGTKVEIKR
notes: also called IgG1#36; D36
B7: antibody #48 (antibody, V domains shown)
VH: EVQLVESGGGLVQPGGSLRLSCAASGFTISNFGIHWVRQAPGKGLEWVAGIWPYGGYTFYADSVKGRFTISADTSKNTAYLQMNSLRAEDTAVYYCARFDSYSYSGYMDYWGQGTLVTVSS
VL: DIQMTQSPSSLSASVGDRVTITCSGSSSNIGDNNVYWYQQKPGKAPKLLIFGPAYLYSGVPSRFSGSGSGTDFTLTISSLQPEDFATYYCAAGYSDNNGITFGQGTKVEIKR
notes: also called C48

Experiments:
[1] = molecular target: T4, MERS-CoV-N protein (MERS-CoV, UniProt K9N4V7 1-411); assay: ELISA, IgG1 on recombinant N protein
T4 construct: also called MERS-CoV nucleocapsid protein

[2] = molecular target: T1, HCoV-OC43-N protein; assay: ELISA, IgG1 on recombinant N protein
[3] = molecular target: T2, HCoV-NL63-N protein; assay: ELISA, IgG1 on recombinant N protein
[4] = molecular target: T3, HCoV-HKU1-N protein; assay: ELISA, IgG1 on recombinant N protein
[5] = molecular target: T5, SARS-CoV-1-N protein (SARS-CoV-1, UniProt P59595 1-422); assay: ELISA, IgG1 on recombinant N protein
T5 construct: also called SARS-CoV N; SARS-CoV-N

[6] = molecular target: T6, SARS-CoV-2-N protein (SARS-CoV-2, UniProt P0DTC9 1-419)
[7] = molecular target: T6, SARS-CoV-2-N protein; assay: ELISA, IgG1 on recombinant N protein

Row | Binder | EC50 [1] [µg/mL] | EC50 [2] [µg/mL] | EC50 [3] [µg/mL] | EC50 [4] [µg/mL] | EC50 [5] [µg/mL] | EC50 [6] [µg/mL] | EC50 [7] [µg/mL]
1 | B1 | > 2 | > 2 | > 2 | > 2 | 0.0069 |  | 
2 | B2 | > 2 | > 2 | > 2 | > 2 | 0.0037 | 0.018 | 0.0037
3 | B3 | > 2 | > 2 | > 2 | > 2 | 0.0016 | 0.0255 | 0.0014
4 | B4 | > 2 | > 2 | > 2 | > 2 | 0.0214 |  | 0.018
5 | B5 | > 2 | > 2 | > 2 | > 2 | 0.0039 |  | 0.0044
6 | B6 | > 2 | > 2 | > 2 | > 2 | 0.002 | 0.0288 | 0.0008
7 | B7 | > 2 | > 2 | > 2 | > 2 | 0.0186 | 0.0207 | 0.0467

Reference: patent publication US20230168249A1 (ACADEMIA SINICA, published 2023)
